Tested on: Escherichia coli TOP10
Experiment: shrunken log2 fold change of peptide-encoding DNA abundance (4.5 h post-induction vs induction); higher = less antimicrobial activity (less host growth inhibition)
Conditions: time post-induction: 4.5 h; library: site-saturation at positions 5, 18, 19, 20
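Further: peptides expressed intracellularly from a pBAD plasmid library in pooled LB shake-flask culture, induced with 0.3% L-arabinose, DNA abundance read by NGS, three biological replicates, DESeq2 with apeglm shrinkage.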

Row | Sequence | shrunken log2 fold change
1 | RRIRCRPPRLPRPRPRPERIPRP | 0.164
2 | RRIRTRPPRLPRPRPRPNDFPRP | -0.205
3 | RRIRWRPPRLPRPRPRPATFPRP | 0.311
4 | RRIRHRPPRLPRPRPRPWPRPRP | 0.166
5 | RRIRDRPPRLPRPRPRPNWNPRP | -0.1
6 | RRIRKRPPRLPRPRPRPGDCPRP | 0.106
7 | RRIRARPPRLPRPRPRPCRDPRP | -0.0411
8 | RRIRGRPPRLPRPRPRPFSIPRP | -0.0155
9 | RRIRSRPPRLPRPRPRPFWPPRP | 0.315
10 | RRIRLRPPRLPRPRPRPLSQPRP | 0.00591
11 | RRIRYRPPRLPRPRPRPGGTPRP | -0.0623
12 | RRIRGRPPRLPRPRPRPDADPRP | 3.64
13 | RRIRYRPPRLPRPRPRPCKTPRP | -0.154
14 | RRIRCRPPRLPRPRPRPWYEPRP | -0.135
15 | RRIRVRPPRLPRPRPRPENNPRP | 0.00554
16 | RRIRTRPPRLPRPRPRPLMHPRP | -0.454
17 | RRIRCRPPRLPRPRPRPGWTPRP | 0.0289
18 | RRIRLRPPRLPRPRPRPVSLPRP | -0.0897
19 | RRIRKRPPRLPRPRPRPQVWPRP | -0.0233
20 | RRIRFRPPRLPRPRPRPWSNPRP | -0.0867
21 | RRIRIRPPRLPRPRPRPIKCPRP | -0.446
22 | RRIRTRPPRLPRPRPRPHVGPRP | 0.0439
23 | RRIRGRPPRLPRPRPRPTCNPRP | 0.7
24 | RRIRDRPPRLPRPRPRPNSNPRP | -0.573
25 | RRIRWRPPRLPRPRPRPGLKPRP | -0.109

Row | Sequence | shrunken log2 fold change
26 | RRIRSRPPRLPRPRPRPWNKPRP | -0.0158
27 | RRIRTRPPRLPRPRPRPDCEPRP | 0.0084
28 | RRIRDRPPRLPRPRPRPCFFPRP | 0.304
29 | RRIRKRPPRLPRPRPRPPTLPRP | 1.53
30 | RRIRARPPRLPRPRPRPQDTPRP | -0.179
31 | RRIRARPPRLPRPRPRPVVQPRP | 0.511
32 | RRIRDRPPRLPRPRPRPSIGPRP | 0.154
33 | RRIRRRPPRLPRPRPRPMEEPRP | 0.0408
34 | RRIRVRPPRLPRPRPRPACWPRP | 0.517
35 | RRIRQRPPRLPRPRPRPSDSPRP | -0.0885
36 | RRIRRRPPRLPRPRPRPYPGPRP | -0.123
37 | RRIRGRPPRLPRPRPRPYNQPRP | -0.104
38 | RRIRWRPPRLPRPRPRPPYCPRP | -0.0779
39 | RRIRGRPPRLPRPRPRPMVAPRP | 1.17
40 | RRIRQRPPRLPRPRPRPFLLPRP | -0.165
41 | RRIRMRPPRLPRPRPRPWMLPRP | 0.367
42 | RRIRNRPPRLPRPRPRPHYDPRP | -0.775
43 | RRIRLRPPRLPRPRPRPNMDPRP | 0.0212
44 | RRIRHRPPRLPRPRPRPIRTPRP | -0.0747
45 | RRIRARPPRLPRPRPRPWLQPRP | -0.0599
46 | RRIRARPPRLPRPRPRPNRWPRP | 0.331
47 | RRIRNRPPRLPRPRPRPWHCPRP | -0.116
48 | RRIRGRPPRLPRPRPRPITDPRP | 0.0223
49 | RRIRDRPPRLPRPRPRPQVAPRP | 0.166
50 | RRIRTRPPRLPRPRPRPPSNPRP | -0.244

Row | Sequence | shrunken log2 fold change
51 | RRIRDRPPRLPRPRPRPHACPRP | 0.00242
52 | RRIRSRPPRLPRPRPRPVRDPRP | 0.369
53 | RRIRIRPPRLPRPRPRPRCMPRP | -0.284
54 | RRIRARPPRLPRPRPRPGDFPRP | 0.383
55 | RRIRLRPPRLPRPRPRPSQRPRP | -0.00321
56 | RRIRWRPPRLPRPRPRPFANPRP | -0.0747
57 | RRIRFRPPRLPRPRPRPQADPRP | 0.0728
58 | RRIRWRPPRLPRPRPRPKMLPRP | 0.149
59 | RRIRCRPPRLPRPRPRPSRDPRP | 0.189
60 | RRIRGRPPRLPRPRPRPWIDPRP | -0.103
61 | RRIRFRPPRLPRPRPRPDTYPRP | -0.221
62 | RRIRARPPRLPRPRPRPLAMPRP | 0.474
63 | RRIRGRPPRLPRPRPRPKCKPRP | 0.51
64 | RRIRMRPPRLPRPRPRPQPIPRP | -0.0134
65 | RRIRYRPPRLPRPRPRPEPRPRP | 0.408
66 | RRIRERPPRLPRPRPRPWPGPRP | -0.0345
67 | RRIRMRPPRLPRPRPRPEHLPRP | 0.417
68 | RRIRCRPPRLPRPRPRPKEEPRP | -0.0302
69 | RRIRNRPPRLPRPRPRPYGMPRP | -0.331
70 | RRIRHRPPRLPRPRPRPFGMPRP | -0.0621
71 | RRIRERPPRLPRPRPRPTGRPRP | -0.146
72 | RRIRCRPPRLPRPRPRPDDKPRP | -0.739
73 | RRIRKRPPRLPRPRPRPCNEPRP | -0.00256
74 | RRIRTRPPRLPRPRPRPGEYPRP | -0.194
75 | RRIRMRPPRLPRPRPRPDCHPRP | 1.49

Row | Sequence | shrunken log2 fold change
76 | RRIRTRPPRLPRPRPRPRILPRP | -0.0615
77 | RRIRQRPPRLPRPRPRPMEQPRP | -0.074
78 | RRIRRRPPRLPRPRPRPVMHPRP | 0.0548
79 | RRIRTRPPRLPRPRPRPVTAPRP | -0.0612
80 | RRIRVRPPRLPRPRPRPSLLPRP | -0.23
81 | RRIRIRPPRLPRPRPRPHKDPRP | -0.447
82 | RRIRHRPPRLPRPRPRPHPVPRP | -0.248
83 | RRIRRRPPRLPRPRPRPDYWPRP | 0.0192
84 | RRIRDRPPRLPRPRPRPACLPRP | 0.723
85 | RRIRQRPPRLPRPRPRPVQEPRP | 0.00554
86 | RRIRIRPPRLPRPRPRPQKYPRP | -0.784
87 | RRIRQRPPRLPRPRPRPFCGPRP | 0.0215
88 | RRIRYRPPRLPRPRPRPARKPRP | -0.486
89 | RRIRMRPPRLPRPRPRPIHHPRP | -0.724
90 | RRIRMRPPRLPRPRPRPVMEPRP | -0.00102
91 | RRIRYRPPRLPRPRPRPSQSPRP | -0.804
92 | RRIRHRPPRLPRPRPRPVLWPRP | 0.234
93 | RRIRYRPPRLPRPRPRPIFIPRP | -0.631
94 | RRIRYRPPRLPRPRPRPNYCPRP | -1.16
95 | RRIRWRPPRLPRPRPRPWHHPRP | -0.0157
96 | RRIRARPPRLPRPRPRPLQIPRP | 0.0194
97 | RRIRIRPPRLPRPRPRPVSYPRP | -0.599
98 | RRIRQRPPRLPRPRPRPAHMPRP | -0.267
99 | RRIRFRPPRLPRPRPRPCSVPRP | -0.338
100 | RRIRWRPPRLPRPRPRPAFIPRP | 0.0835

Row | Sequence | shrunken log2 fold change
101 | RRIRPRPPRLPRPRPRPRKSPRP | 0.112
102 | RRIRERPPRLPRPRPRPYGTPRP | -0.0949
103 | RRIRKRPPRLPRPRPRPSRDPRP | 0.0856
104 | RRIRVRPPRLPRPRPRPETVPRP | -0.103
105 | RRIRWRPPRLPRPRPRPGFCPRP | 0.524
106 | RRIRNRPPRLPRPRPRPSCEPRP | -0.229
107 | RRIRPRPPRLPRPRPRPFFKPRP | -0.0682
108 | RRIRARPPRLPRPRPRPRLWPRP | 0.724
109 | RRIRCRPPRLPRPRPRPNSDPRP | -0.255
110 | RRIRRRPPRLPRPRPRPWKAPRP | 0.0256
111 | RRIRERPPRLPRPRPRPEKSPRP | -0.14
112 | RRIRDRPPRLPRPRPRPCPTPRP | 0.131
113 | RRIRTRPPRLPRPRPRPCKMPRP | -0.47
114 | RRIRYRPPRLPRPRPRPGMYPRP | -1.44
115 | RRIRGRPPRLPRPRPRPHMEPRP | 0.0707
116 | RRIRVRPPRLPRPRPRPPEEPRP | 0.0908
117 | RRIRIRPPRLPRPRPRPNGPPRP | 0.00676
118 | RRIRIRPPRLPRPRPRPPHEPRP | 0.225
119 | RRIRDRPPRLPRPRPRPTHAPRP | 0.148
120 | RRIRGRPPRLPRPRPRPLLMPRP | 1.22
121 | RRIRTRPPRLPRPRPRPFNCPRP | -0.038
122 | RRIRLRPPRLPRPRPRPESGPRP | 0.0315
123 | RRIRSRPPRLPRPRPRPMGRPRP | 0.0253
124 | RRIRARPPRLPRPRPRPKNGPRP | 0.246
125 | RRIRPRPPRLPRPRPRPSPTPRP | 0.22

Row | Sequence | shrunken log2 fold change
126 | RRIRKRPPRLPRPRPRPCEFPRP | 0.252
127 | RRIRARPPRLPRPRPRPMMLPRP | -0.00455
128 | RRIRLRPPRLPRPRPRPFKKPRP | 0.0344
129 | RRIRFRPPRLPRPRPRPPLWPRP | 0.46
130 | RRIRTRPPRLPRPRPRPVAVPRP | 0.0298
131 | RRIRHRPPRLPRPRPRPCHFPRP | -0.0384
132 | RRIRPRPPRLPRPRPRPGFRPRP | 0.138
133 | RRIRVRPPRLPRPRPRPVERPRP | 0.0358
134 | RRIRERPPRLPRPRPRPCWQPRP | -0.0429
135 | RRIRYRPPRLPRPRPRPNPIPRP | -0.711
136 | RRIRRRPPRLPRPRPRPQIDPRP | 0.332
137 | RRIRNRPPRLPRPRPRPSGDPRP | -0.252
138 | RRIRSRPPRLPRPRPRPLNIPRP | -0.422
139 | RRIRLRPPRLPRPRPRPFVNPRP | -0.372
140 | RRIRRRPPRLPRPRPRPPCGPRP | 0.324
141 | RRIRRRPPRLPRPRPRPLKCPRP | 0.0734
142 | RRIRWRPPRLPRPRPRPKKLPRP | -0.0343
143 | RRIRYRPPRLPRPRPRPSQGPRP | -0.031
144 | RRIRYRPPRLPRPRPRPACEPRP | -0.0778
145 | RRIRERPPRLPRPRPRPGDAPRP | 0.106
146 | RRIRRRPPRLPRPRPRPVTGPRP | 0.0301
147 | RRIRLRPPRLPRPRPRPAGNPRP | 0.116
148 | RRIRPRPPRLPRPRPRPAAHPRP | 0.0385
149 | RRIRTRPPRLPRPRPRPCTYPRP | -0.326
150 | RRIRKRPPRLPRPRPRPTFPPRP | 0.0736

Reference: the supplement of paper PMC9112550, “Optimization of the antimicrobial peptide Bac7 by deep mutational scanning” (BMC Biology, 2022)
